Reference: US20250051400A1
pKd: −log10 of the molar value.

How the values were obtained:
human IgG2 (Panitumomab) = experiment: SPR, Biacore 3000, 25 C, Langmuir 1:1 model
human IgG4 (Natalizumab) = experiment: SPR, Biacore 3000, 25 C, Langmuir 1:1 model

pKd (human IgG2 (Panitumomab)): 6.89
pKd (human IgG4 (Natalizumab)): 8.10
Substance: Wt C-domain (wild-type Protein A domain C) (from UniProt P38507 270-327)
